Patent US20020193308A1

Target: polyclonal antibodies (lot RF29), raised in rabbits against natural isolate of UK114
Assay: competition ELISA: soluble antigen titrated against rabbit antiserum (1:10,000) on plates coated with natural UK114; apparent Ka is the reciprocal of the antigen concentration at the A50 point

Ka: 4.9e+08 M⁻¹
B1: recombinant UK114 (E.coli-derived, SEQ ID NO:1) (protein)
chain: SSLVRRIISTAKAPAAIGPYSQAVLVDRTIYISGQLGMDPASGQLVPGGVVEEAKQALTNIGEILKAAGCDFTNVVKATVLLADINDFSAVNDVYKQYFQSSFPARAAYQVAALPKGGRVEIEAIAVQGPLTTASV
